Assay results from US5538946A, “Hirudin derivatives with delayed action” (Hoechst Aktiengesellschaft, priority 1988, dated 1996).

Molecular target: thrombin (Homo sapiens, UniProt P00734)
Assay: In vitro thrombin inhibition assay (coagulation time) as in Example 2, with re-use of isolated Sepharose-hirudin
Format: biochemical
Conditions: isolated from treated plasma, washed with 1 to 1.5 M NaCl, employed again
Protocol: Female and male Wistar rats with a body weight of about 300 g are anesthetized with ethylurethane (1.5 g/kg i.p.). 1000 AT-U/kg of a hirudin derivative or authentic `Leu-Thr-hirudin`, which has been dissolved in physiological saline, are administered i.v. to the rats. A catheter is implanted in the carotid of the animals for blood sampling. Blood is taken from the animals and treated with citrate for the determination of anti-thrombin activity. 0.1 ml of the blood treated in this way is mixed with 0.2 ml of Tris/HCl buffer (0.1 mol/1; pH 7.4) and preincubated at 37° C. After addition of 0.1 ml of a thrombin solution (10 NIH-U/ml) the coagulation time is determined using a Schnitger and Gross coagulometer. In parallel with the experiment a calibration plot is constructed using reference plasma, from which the particular plasma hirudin or plasma hirudin derivative concentration is read off.
The protein coupling yield is 5 %. The biological activity is determined in vitro as in Example 2. The Sepharose-hirudin is isolated from the treated plasma, washed with a 1 to 1.5 M NaCl solution and again employed in the inhibition assay.

Substance: Sepharose-hirudin: hirudin immobilised on activated CH-Sepharose 4 B (Pharmacia)
- measured activity on re-use in the inhibition assay: within the limit of error of the first measurement
